Earlier results as cited in paper PMC6003685.

Molecular target: PspF 1-265 (Escherichia coli) (UniProt P37344)

Kd: 1000 nM
Substance: PspA 1-144 (from UniProt P0AFM6)
